The values that follow come from paper PMC10872493.

Several values for one entry are separate records, joined by “and”; a condition that tells them apart may be missing. Equal values may be shown once.

In test [1] the target is CP α1N44C β2E84C, labeled with donor and acceptor dyes (single-molecule FRET construct) (mouse) (UniProt Q5RKN9). In words: single-molecule FRET titration.
The target of test [2] is CP α1S9C β2S161C, labeled with donor and acceptor dyes (single-molecule FRET construct) (mouse) (UniProt Q5RKN9). In words: single-molecule FRET titration.

In the case of CKIP-1 CPI-motif peptide, the Kd in test [1] is 10 nM and 11 nM.
As to WASHCAP CPI-motif peptide, the Kd in test [2] amounted to 1.4 nM.

In general, Kd refers to the free concentration of one partner at which half of the binding sites on the other are occupied at equilibrium, for simple one-to-one binding.
